From the supplement of paper PMC10724198
± gives the standard deviation of the averaged measurements.

The sequences below were run on Saccharomyces cerevisiae (assay: protein stability index of tFT-peptide fusion (C-terminal peptide) (PSI (0-1 scale)); higher = more stable (slower turnover)). Details: genetic background: wild type; temperature: 30 C.
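Note: PSI is a weighted mean of sequencing reads over stability bins, variants kept only with over 10 reads, mCherry proximal and sfGFP distal, peptide attached via GGGS linker.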

PPPPPLLPPPPA and PPPPPLLPPSLR are within error of each other in protein stability index: 0.721 ± 0.02 for the first, 0.671 ± 0.073 for the second.

PPPPPLPALPHL and PPPPPLPHPVPP are within error of each other in protein stability index: 0.627 ± 0.023 for the first, 0.6206 ± 0.005 for the second.

Going from PPPPPLPPPPSP to PPPPPLPPPTPP, the protein stability index falls from 0.656 ± 0.052 to 0.568 ± 0.024.

PPPPPLPRALST and PPPPPLQRFPPF are within error of each other in protein stability index: 0.72 ± 0.044 for the first, 0.644 ± 0.046 for the second.

PPPPPLSLPPPA and PPPPPLSPPPRP are within error of each other in protein stability index: 0.693 ± 0.024 for the first, 0.68631 ± 0.00031 for the second.

PPPPPLSSPPSP and PPPPPPAASSSP are within error of each other in protein stability index: 0.652 ± 0.049 for the first, 0.692 ± 0.047 for the second.

PPPPPPFLPRLP and PPPPPPFPSSPP are within error of each other in protein stability index: 0.721 ± 0.14 for the first, 0.698 ± 0.013 for the second.

PPPPPPLSPPSP and PPPPPPPPAPPS are within error of each other in protein stability index: 0.659 ± 0.012 for the first, 0.68 ± 0.035 for the second.

PPPPPPPPPCHL and PPPPPPPPPDPA are within error of each other in protein stability index: 0.644 ± 0.078 for the first, 0.666 ± 0.013 for the second.

First: PPPPPPPPPLFP
Second: PPPPPPPPPSFP
The protein stability index of the first is higher: 0.703 ± 0.022 for the first, 0.65 ± 0.0086 for the second.

PPPPPPPPRLTF and PPPPPPSPHPPL are within error of each other in protein stability index: 0.698 ± 0.094 for the first, 0.709 ± 0.01 for the second.

PPPPPPSPPPPP and PPPPPPTPDPLA are within error of each other in protein stability index: 0.713 ± 0.038 for the first, 0.666 ± 0.048 for the second.

PPPPPRPPPPAP and PPPPPRPPRLLS are within error of each other in protein stability index: 0.5949 ± 0.0051 for the first, 0.651 ± 0.1 for the second.

PPPPPSPDSNLF and PPPPPSPLPPRP are within error of each other in protein stability index: 0.733 ± 0.067 for the first, 0.624 ± 0.045 for the second.

PPPPPSPRALLP and PPPPPVLPPRPP are within error of each other in protein stability index: 0.657 ± 0.028 for the first, 0.713 ± 0.075 for the second.

PPPPRHPAAAPP and PPPPRSPPLPRL are within error of each other in protein stability index: 0.7668 ± 0.0075 for the first, 0.743 ± 0.061 for the second.

PPPPRSPSLLSP and PPPPTPPPHSPP are within error of each other in protein stability index: 0.651 ± 0.059 for the first, 0.656 ± 0.022 for the second.

Compared with PPPPTPPPRTSP, PPPPVFPQPTPA is lower in protein stability index: 0.739 ± 0.063 for the first, 0.6425 ± 0.0023 for the second.

PPPPVPSLLLLS and PPPRFCSLPDHL are within error of each other in protein stability index: 0.579 ± 0.019 for the first, 0.636 ± 0.049 for the second.

PPPRHSPRPPCI and PPPRLPPPPHAL are within error of each other in protein stability index: 0.746 ± 0.11 for the first, 0.795 ± 0.044 for the second.

PPPRLPPPPPPP and PPPRPAPPSSHS are within error of each other in protein stability index: 0.679 ± 0.048 for the first, 0.641 ± 0.044 for the second.

PPPRPHPTRLSY and PPPRPPPLPSPV are within error of each other in protein stability index: 0.576 ± 0.054 for the first, 0.616 ± 0.0093 for the second.

PPPRPPPPLSHS and PPPRPRSLTCPA are within error of each other in protein stability index: 0.632 ± 0.04 for the first, 0.73 ± 0.14 for the second.

PPPRPSPPPSRP and PPPRSPRSLPPL are within error of each other in protein stability index: 0.684 ± 0.021 for the first, 0.676 ± 0.017 for the second.

First: PPPSCPLSPPRL
Second: PPPSLPFPPPHP
The protein stability index of the first is lower: 0.668 ± 0.0046 for the first, 0.6827 ± 0.0029 for the second.

PPPSPALPLPPY and PPPSPFLPPRAP are within error of each other in protein stability index: 0.712 ± 0.019 for the first, 0.709 ± 0.051 for the second.

PPPSPLLLFPPL and PPPSPPLPPFSL are within error of each other in protein stability index: 0.645 ± 0.11 for the first, 0.7056 ± 0.00078 for the second.

PPPSPPLPPPLL and PPPSPPPPPLLP are within error of each other in protein stability index: 0.696 ± 0.05 for the first, 0.6508 ± 0.0016 for the second.

PPPSPPPTSNPN and PPPSPPPYRLPP are within error of each other in protein stability index: 0.742 ± 0.04 for the first, 0.7 ± 0.016 for the second.

PPPSPPSTTPPL and PPPSPPTAPAAP are within error of each other in protein stability index: 0.672 ± 0.07 for the first, 0.713 ± 0.038 for the second.

PPPSPTPGHPQL and PPPTDSQTTWHP are within error of each other in protein stability index: 0.718 ± 0.044 for the first, 0.705 ± 0.018 for the second.

PPPTPAPLLVPS and PPPTPPPGTYSL are within error of each other in protein stability index: 0.598 ± 0.0091 for the first, 0.579 ± 0.011 for the second.

PPPTPPSPPRPH and PPPTRPSQAPHL are within error of each other in protein stability index: 0.71 ± 0.068 for the first, 0.645 ± 0.11 for the second.

PPPTSPRSPVPI and PPPVPPTPFLTR are within error of each other in protein stability index: 0.697 ± 0.021 for the first, 0.744 ± 0.11 for the second.

Going from PPPVPTRPSPPP to PPPYDPPRPLPR, the protein stability index rises from 0.6737 ± 0.0047 to 0.7209 ± 0.0027.

Going from PPRAPPPPVPPL to PPRLAPPDPSLL, the protein stability index rises from 0.598 ± 0.03 to 0.673 ± 0.022.

Compared with PPRLHPAPPPRT, PPRLPLSHPPEP is lower in protein stability index: 0.747 ± 0.033 for the first, 0.634 ± 0.022 for the second.

Compared with PPRLRSPTPFLL, PPRLSPAPPASP is lower in protein stability index: 0.755 ± 0.027 for the first, 0.605 ± 0.009 for the second.

Compared with PPRPPHPAPSPH, PPRPPPPPLRST is higher in protein stability index: 0.638 ± 0.024 for the first, 0.758 ± 0.078 for the second.

PPRPPSPLPLPP and PPRPSLLPRALF are within error of each other in protein stability index: 0.687 ± 0.016 for the first, 0.642 ± 0.041 for the second.

PPRPSPPLSPLP and PPRVSLLSPPPP are within error of each other in protein stability index: 0.72 ± 0.042 for the first, 0.693 ± 0.034 for the second.

PPRVSLLTPSPR and PPSASLAPFLSP are within error of each other in protein stability index: 0.853 ± 0.21 for the first, 0.722 ± 0.12 for the second.

PPSLPLLPPHPP and PPSLRVVMVVGR are within error of each other in protein stability index: 0.562 ± 0.011 for the first, 0.611 ± 0.056 for the second.

Compared with PPSMRQRKRSGP, PPSPAPLHPSTS is lower in protein stability index: 0.746 ± 0.028 for the first, 0.661 ± 0.047 for the second.

PPSPAPPPASPP and PPSPCRTHRLYI are within error of each other in protein stability index: 0.651 ± 0.035 for the first, 0.629 ± 0.022 for the second.

PPSPLAPPLPPP and PPSPLPPAPPSP are within error of each other in protein stability index: 0.709 ± 0.036 for the first, 0.668 ± 0.029 for the second.

PPSPPDLPPHPP and PPSPPPPPKIPP are within error of each other in protein stability index: 0.618 ± 0.027 for the first, 0.627 ± 0.055 for the second.

PPSPPPPPPPTP and PPSPPPPPSSPP are within error of each other in protein stability index: 0.699 ± 0.043 for the first, 0.707 ± 0.071 for the second.

Compared with PPSPPPPRPSFP, PPSPPRPPTSFL is lower in protein stability index: 0.713 ± 0.0096 for the first, 0.608 ± 0.057 for the second.

Going from PPSPPSPPPPLP to PPSPPTPPPPLP, the protein stability index falls from 0.69 ± 0.012 to 0.66 ± 0.0085.

Going from PPSPRPPRPLFA to PPSPYNPPSTAN, the protein stability index rises from 0.664 ± 0.021 to 0.722 ± 0.0091.

PPSRDRATSPSE and PPSRNPPDLDTQ are within error of each other in protein stability index: 0.656 ± 0.023 for the first, 0.682 ± 0.14 for the second.

PPSSFHFVVPHP and PPSTFDPSTLRP are within error of each other in protein stability index: 0.684 ± 0.054 for the first, 0.665 ± 0.041 for the second.

PPSTSPTLTSAR and PPSVLPLPPSLP are within error of each other in protein stability index: 0.722 ± 0.016 for the first, 0.732 ± 0.043 for the second.

PPSVPPPLPHPV and PPTFPPPLPLPP are within error of each other in protein stability index: 0.74 ± 0.037 for the first, 0.692 ± 0.031 for the second.

PPTGHAPSRALT and PPTPAPLSPPYV are within error of each other in protein stability index: 0.676 ± 0.091 for the first, 0.712 ± 0.026 for the second.

PPTSLRFRPPYC and PPVAPTPFPPPS are within error of each other in protein stability index: 0.682 ± 0.046 for the first, 0.684 ± 0.018 for the second.

PPVFYAPLVTER and PPVPPPAPPHPR are within error of each other in protein stability index: 0.7 ± 0.035 for the first, 0.753 ± 0.14 for the second.

PPVPPPLPYLPP and PPVPRSPPPRRS are within error of each other in protein stability index: 0.624 ± 0.031 for the first, 0.719 ± 0.12 for the second.

PPVPSLFPPPPH and PPVRPRPDPACR are within error of each other in protein stability index: 0.674 ± 0.038 for the first, 0.727 ± 0.031 for the second.

PPVSPPLPPPPH and PPVWSSLPPPPF are within error of each other in protein stability index: 0.704 ± 0.03 for the first, 0.721 ± 0.018 for the second.

First: PQLNRKAATPQN
Second: PQPLESTVDHRL
The protein stability index of the first is lower: 0.641 ± 0.069 for the first, 0.7192 ± 0.0062 for the second.

PRAANRWASKAL and PRETRPDEAQRG are within error of each other in protein stability index: 0.6941 ± 0.0069 for the first, 0.726 ± 0.069 for the second.

PREYGSYHNYHS and PRFPPLPAHRVR are within error of each other in protein stability index: 0.592 ± 0.047 for the first, 0.633 ± 0.047 for the second.

PRFPQPSTLLPP and PRHPRLPAPPAP are within error of each other in protein stability index: 0.698 ± 0.021 for the first, 0.666 ± 0.034 for the second.

Compared with PRHSPPPPLPAP, PRHVISQCFSRT is lower in protein stability index: 0.699 ± 0.014 for the first, 0.6641 ± 0.005 for the second.

PRIPPPIPPDTP and PRKHSSRAINPI are within error of each other in protein stability index: 0.695 ± 0.045 for the first, 0.721 ± 0.06 for the second.

Going from PRLCFPPPPAPA to PRPPALPFPLLA, the protein stability index falls from 0.688 ± 0.083 to 0.5329 ± 0.0036.

PRPPHPPPASPP and PRPPPPRPRSSP are within error of each other in protein stability index: 0.58 ± 0.031 for the first, 0.667 ± 0.066 for the second.

Compared with PRPPSPPPPSPA, PRRLCLLPLLSP is lower in protein stability index: 0.808 ± 0.072 for the first, 0.662 ± 0.022 for the second.

PRRPCDPLRAPH and PRRPPPPRARFP are within error of each other in protein stability index: 0.737 ± 0.15 for the first, 0.723 ± 0.026 for the second.

PRSAMTRHSSCR and PRSAPPPPNSLF are within error of each other in protein stability index: 0.65 ± 0.017 for the first, 0.656 ± 0.035 for the second.

PRSPLSIFPSSL and PRSPSPPRSPSP are within error of each other in protein stability index: 0.692 ± 0.13 for the first, 0.66 ± 0.12 for the second.

PRSSPEPTCQDP and PRSTATSPPAPP are within error of each other in protein stability index: 0.647 ± 0.099 for the first, 0.6678 ± 0.0019 for the second.

PRTDIGGAGLGE and PRTLRHSGRLAE are within error of each other in protein stability index: 0.6961 ± 0.0019 for the first, 0.705 ± 0.016 for the second.

PRTSQVNRFFRV and PRYCVQQNPQDR are within error of each other in protein stability index: 0.721 ± 0.13 for the first, 0.722 ± 0.044 for the second.

Going from PSALPPFQPGPL to PSAPFPFPALGA, the protein stability index falls from 0.747 ± 0.047 to 0.61 ± 0.028.

PSAPLVPNLLAA and PSAPPSLPFLPY are within error of each other in protein stability index: 0.662 ± 0.016 for the first, 0.692 ± 0.032 for the second.

PSDYDCHRKTFS and PSFLPLPLPSSF are within error of each other in protein stability index: 0.738 ± 0.01 for the first, 0.718 ± 0.028 for the second.

PSFPHLPDFFIP and PSFPSSPSPVTL are within error of each other in protein stability index: 0.6779 ± 0.0019 for the first, 0.69 ± 0.035 for the second.
